In this test the target is T1, 6xHis–Rab35^WT full-length (human, UniProt Q15286 1-201).
T1 construct: Rab35 GTPase, full-length, wild type; Exchanged with 1 mM GDP or 200 μM GTPγS before the pull-down; The species is not repeated for the His construct; also called 6xHis-tagged Rab35^WT; source: E. coli BL21 pLysS, purified (Ni-NTA Magnetic Agarose Beads)
Briefly: pull-down; GST–PODXL tail or GST on glutathione Sepharose 4B beads incubated with 6xHis-Rab proteins exchanged with 1 mM GDP or 200 μM GTPγS; 25 mM Tris pH 7.5, 50 mM NaCl, 10 mM MgCl2, 0.1% Triton X-100, 0.2% BSA; western blot with anti-6xHis. To be noted: both partners purified.

T1 sequence (Q15286 whole entry): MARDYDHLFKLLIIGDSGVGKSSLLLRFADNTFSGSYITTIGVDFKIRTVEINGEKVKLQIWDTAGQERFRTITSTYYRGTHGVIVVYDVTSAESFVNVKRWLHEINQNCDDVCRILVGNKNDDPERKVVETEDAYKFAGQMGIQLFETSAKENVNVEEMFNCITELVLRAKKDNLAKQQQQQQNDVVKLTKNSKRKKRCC

B1: GST–PODXL WT (aa 476–551) (domain or fragment, rabbit, UniProt Q28645 476-551, looked up)
chain: CHQRLSHRKDQQRLTEELQTVENGYHDNPTLEVMETSAEMQEKKVVNLNGELGDSWIVPLDNLTKDDLDEEEDTHL
notes: The species is not repeated for the GST construct; source: E. coli BL21 pLysS, purified (glutathione Sepharose 4B)
Regarding B1, the binding result was “binds”.

These data come from article PMC4822036, “Rab35 GTPase couples cell division with initiation of epithelial apico-basal polarity and lumen opening” (Nature Communications, 2016).
